The chains are these.
B1: glmS ribozyme (parent)
chain: AUAAAAGCGCCAGAACUACAGAAAUGUAGUUGACGAGGAGGAGGUUUAUCGAAUUUUCGGCGGAUGCCUCCAAA

Common to all, as to conditions: with glucosamine-6-phosphate
In data set [1] the parent is B1. Put plainly: kcat; higher = faster cleavage; RNA array. In outline: (§1)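 Barcoded ribozyme variants were transcribed in situ on sequenced MiSeq chips by E. coli RNA polymerase. At 37 °C, a hybridised Cy3 probe tracked them while glucosamine-6-phosphate (40 μM to 10 mM) in HEPES/KCl/Mg(OAc)2 buffer flowed in and tiles were imaged over ~14 h. Per-tile medians of signals normalised to baseline and to non-cleaving reference variants were fit to one- or two-exponential decays, giving kobs. kcat and KM came from weighted Michaelis–Menten fits across concentrations.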

The variants in data set [2] derive from B1. The data set can be described thus: KM; higher = weaker cofactor use; RNA array. In outline: as §1
Data set [3] covers variants of B1. Put plainly: self-cleavage kobs at 160 uM GlcN6P; higher = faster cleavage; RNA array. In outline: as §1
Variants of B1 are the subject of data set [4]. Put plainly: self-cleavage kobs at 640 uM GlcN6P; higher = faster cleavage; RNA array. In outline: as §1
The variants in data set [5] derive from B1. The data set can be described thus: self-cleavage kobs at 2500 uM GlcN6P; higher = faster cleavage; RNA array. In outline: as §1
The variants in data set [6] derive from B1. The data set can be described thus: self-cleavage kobs at 10000 uM GlcN6P; higher = faster cleavage; RNA array. In outline:
as §1

The variants in data set [7] derive from B1. Put plainly: self-cleavage kobs at 40 uM GlcN6P; higher = faster cleavage; RNA array. In outline:
as §1

± gives the standard error. For some assays here: Fewer inactive variants are shown than the library holds.

From the supplement of paper PMC7125110 come the findings set out here.

As a reminder, the kcat is the number of substrate molecules converted per active site and unit of time at saturation. What is called KM is the concentration of substrate that gives half-maximal velocity. As to AUAAAAGCGCCAGCACUACAGAAAUGUAGUUGACGAGGACGAGGUUUAUCGAAUUUUCGGCGGAUGCCUCCAAA, the kcat in the data set with glucosamine-6-phosphate [1] turned out to be 0.000718 ± 6.3e-05 s⁻¹. For the same variant, the KM with glucosamine-6-phosphate [2] amounted to 3.65 ± 0.53 mM. Moreover, in the data set with glucosamine-6-phosphate [3], the “self-cleavage kobs at 160 uM GlcN6P” value is 2.58e-05 ± 1.1e-05 s⁻¹. Moreover, in the data set with glucosamine-6-phosphate [4], the “self-cleavage kobs at 640 uM GlcN6P” value stood at 0.000114 ± 1.8e-05 s⁻¹. In the data set with glucosamine-6-phosphate [5], the “self-cleavage kobs at 2500 uM GlcN6P” value is 0.000285 ± 3.3e-05 s⁻¹. Moreover, the “self-cleavage kobs at 10000 uM GlcN6P” value with glucosamine-6-phosphate [6] turned out to be 0.000533 ± 7.6e-05 s⁻¹.
On to AUAAAGGCGCCAGAACUACAGAAAUGUAGAUGACGAGGAGGAGGUUUAUCGAAUUUUCGGCGGAUGCCUCCAAA, for which the kcat with glucosamine-6-phosphate [1] came out at 5.86e-05 ± 1.4e-05 s⁻¹. The “self-cleavage kobs at 2500 uM GlcN6P” value in the data set with glucosamine-6-phosphate [5] came out at 3.73e-05 ± 1e-05 s⁻¹. Besides, the “self-cleavage kobs at 10000 uM GlcN6P” value in the data set with glucosamine-6-phosphate [6] came out at 4.4e-05 ± 1.9e-05 s⁻¹.
AUAAAAGCGCCAGAACUACAGAAAUGUAUUUGACGAGGAGGGGGUUUAUCGAAUUUUCGGCGGAUGCCUCCAAA: the kcat in the data set with glucosamine-6-phosphate [1] was 0.00693 ± 0.0016 s⁻¹. Besides, the KM with glucosamine-6-phosphate [2] turned out to be 1.77 ± 0.66 mM. Also, the “self-cleavage kobs at 40 uM GlcN6P” value with glucosamine-6-phosphate [7] came out at 0.000272 ± 0.00011 s⁻¹. The “self-cleavage kobs at 160 uM GlcN6P” value with glucosamine-6-phosphate [3] was 0.000486 ± 0.00015 s⁻¹. For the same variant, in the data set with glucosamine-6-phosphate [4], the “self-cleavage kobs at 640 uM GlcN6P” value worked out at 0.00202 ± 0.00037 s⁻¹. For the same variant, the “self-cleavage kobs at 10000 uM GlcN6P” value with glucosamine-6-phosphate [6] came to 0.00626 ± 0.0011 s⁻¹.
Consider AUAAAAGCGCCAGAACUACAGAAAUGUAGUUGACGAGGAGGAGGUUUAUCGAGUUUUCGGCGGAUGGCUCCAAA, for which, in the data set with glucosamine-6-phosphate [1], the kcat was found to be 0.007 ± 0.0028 s⁻¹. Further, the “self-cleavage kobs at 40 uM GlcN6P” value in the data set with glucosamine-6-phosphate [7] worked out at 0.000155 ± 1.6e-05 s⁻¹. Also, in the data set with glucosamine-6-phosphate [3], the “self-cleavage kobs at 160 uM GlcN6P” value was determined as 0.000304 ± 4.6e-05 s⁻¹. In addition, in the data set with glucosamine-6-phosphate [4], the “self-cleavage kobs at 640 uM GlcN6P” value worked out at 0.00225 ± 0.00035 s⁻¹. The “self-cleavage kobs at 2500 uM GlcN6P” value with glucosamine-6-phosphate [5] was determined as 0.00466 ± 0.00096 s⁻¹. For the same variant, the “self-cleavage kobs at 10000 uM GlcN6P” value with glucosamine-6-phosphate [6] is 0.00539 ± 0.00069 s⁻¹.
With AUAAAAGCGCCAGAACUACAGAAAUGUAGUUAACGAGGAGGAGGUUUAUCGAAUUUACGGCGGAUGCCUCCAAA, the kcat with glucosamine-6-phosphate [1] worked out at 3.77e-05 ± 3.1e-06 s⁻¹. Further, the KM in the data set with glucosamine-6-phosphate [2] was found to be 3 ± 0.97 mM. For the same variant, the “self-cleavage kobs at 160 uM GlcN6P” value with glucosamine-6-phosphate [3] is below 1e-05 s⁻¹. The “self-cleavage kobs at 10000 uM GlcN6P” value with glucosamine-6-phosphate [6] is 2.89e-05 ± 9.1e-06 s⁻¹.
For AUAAAAGCGCCAGAACUACAGAAAUGUAGUUGACGAGGAGGAGGUUUAUCGACUUUUCGGCGGAUGCCUCAAAA, the kcat with glucosamine-6-phosphate [1] is 0.000797 ± 0.00016 s⁻¹. Moreover, the KM with glucosamine-6-phosphate [2] was 1.61 ± 0.52 mM. Further, the “self-cleavage kobs at 160 uM GlcN6P” value with glucosamine-6-phosphate [3] stood at 6.89e-05 ± 1.5e-05 s⁻¹. Moreover, the “self-cleavage kobs at 640 uM GlcN6P” value in the data set with glucosamine-6-phosphate [4] came to 0.000254 ± 0.00011 s⁻¹. Besides, the “self-cleavage kobs at 2500 uM GlcN6P” value in the data set with glucosamine-6-phosphate [5] is 0.000705 ± 0.00017 s⁻¹. For the same variant, the “self-cleavage kobs at 10000 uM GlcN6P” value with glucosamine-6-phosphate [6] amounted to 0.000613 ± 0.00013 s⁻¹.
With AUAAAAGCGCCAGAACUACAGAAAUGUAGUUUACGAGGAUGAGGUUUAUCGAAUUUUCGGCGGAUGCCUCCAAA, the kcat in the data set with glucosamine-6-phosphate [1] came out at 0.000265 ± 3e-05 s⁻¹. Further, the KM with glucosamine-6-phosphate [2] was 7.17 ± 1.3 mM. Moreover, the “self-cleavage kobs at 640 uM GlcN6P” value with glucosamine-6-phosphate [4] is 1.68e-05 ± 7.3e-06 s⁻¹. In the data set with glucosamine-6-phosphate [5], the “self-cleavage kobs at 2500 uM GlcN6P” value was found to be 7.08e-05 ± 7.2e-06 s⁻¹. Besides, the “self-cleavage kobs at 10000 uM GlcN6P” value with glucosamine-6-phosphate [6] was 0.000153 ± 1.6e-05 s⁻¹.
In the case of AUAAAAGCGCCAGAACUACAGAAAUGUAGUUGACGAGGGGGAGGUUUAUCGAAUUUUGGGCGGAUGCCUCCAAA, the kcat with glucosamine-6-phosphate [1] came to 0.000195 ± 2.9e-05 s⁻¹. Further, the KM with glucosamine-6-phosphate [2] is 3.34 ± 1.1 mM. For the same variant, the “self-cleavage kobs at 640 uM GlcN6P” value with glucosamine-6-phosphate [4] was determined as 3.89e-05 ± 1.2e-05 s⁻¹. For the same variant, in the data set with glucosamine-6-phosphate [5], the “self-cleavage kobs at 2500 uM GlcN6P” value worked out at 7.24e-05 ± 1.7e-05 s⁻¹. For the same variant, the “self-cleavage kobs at 10000 uM GlcN6P” value with glucosamine-6-phosphate [6] came to 0.000151 ± 2.3e-05 s⁻¹.
Regarding AUAAAGGCGCCAGAACUACAGAAAUGUAGUUGACGAUGAGGAGGUUUAUCGAAUUUUCGGCGGAUGCCUCCAAA, the kcat with glucosamine-6-phosphate [1] is below 1e-05 s⁻¹. Moreover, the “self-cleavage kobs at 40 uM GlcN6P” value with glucosamine-6-phosphate [7] was below 1e-05 s⁻¹. In addition, the “self-cleavage kobs at 160 uM GlcN6P” value with glucosamine-6-phosphate [3] is below 1e-05 s⁻¹. Also, the “self-cleavage kobs at 10000 uM GlcN6P” value with glucosamine-6-phosphate [6] was below 1e-05 s⁻¹.
Consider AUAAAAGCGCCAGAACUACAGAAAUGUAGUUGACGAGGAGGAGGUUUGUCGAACUUUCGGCGGAUGCCUCCAAA, for which the kcat with glucosamine-6-phosphate [1] stood at 0.000123 ± 1.5e-05 s⁻¹. In addition, the KM with glucosamine-6-phosphate [2] stood at 1.31 ± 0.5 mM. In the data set with glucosamine-6-phosphate [4], the “self-cleavage kobs at 640 uM GlcN6P” value amounted to 3.59e-05 ± 1.1e-05 s⁻¹. For the same variant, in the data set with glucosamine-6-phosphate [5], the “self-cleavage kobs at 2500 uM GlcN6P” value was 0.000101 ± 1.8e-05 s⁻¹. Moreover, in the data set with glucosamine-6-phosphate [6], the “self-cleavage kobs at 10000 uM GlcN6P” value came out at 0.000104 ± 1.3e-05 s⁻¹.
Take AUAAAAGCGCCAAAACUACAGAAAUGUAGUUGACGAGGGGGAGGUUUAUCGAAUUUUCGGGGGAUGCCUACAAA: the kcat with glucosamine-6-phosphate [1] is below 1e-05 s⁻¹.
For AUAAAAGCGCCAGAACUACAGAAAUGUAGUUAACGAGGAGGAGGUUUAUCGAAUUAUCGGCGGAUGCCUCCAAA, the kcat in the data set with glucosamine-6-phosphate [1] worked out at 0.000939 ± 0.0002 s⁻¹. The Michaelis constant (KM) in the data set with glucosamine-6-phosphate [2] worked out at 5.36 ± 1.6 mM. The “self-cleavage kobs at 160 uM GlcN6P” value with glucosamine-6-phosphate [3] stood at 4.57e-05 ± 1.5e-05 s⁻¹. The “self-cleavage kobs at 640 uM GlcN6P” value in the data set with glucosamine-6-phosphate [4] came to 9.47e-05 ± 1.5e-05 s⁻¹. Further, the “self-cleavage kobs at 2500 uM GlcN6P” value with glucosamine-6-phosphate [5] was found to be 0.000295 ± 4.3e-05 s⁻¹. The “self-cleavage kobs at 10000 uM GlcN6P” value in the data set with glucosamine-6-phosphate [6] was 0.000619 ± 9.9e-05 s⁻¹.
As for AUAAAAGCGCCAGAACUACAGAAAUGUAGUUGACGAAGAGGAGGUUUAUCGAAUUUUCGGCGGAUGCCCCCAAA, the catalytic constant (kcat) with glucosamine-6-phosphate [1] worked out at 0.0003 ± 5.9e-05 s⁻¹. The KM in the data set with glucosamine-6-phosphate [2] turned out to be 1.17 ± 0.53 mM. Also, the “self-cleavage kobs at 640 uM GlcN6P” value with glucosamine-6-phosphate [4] was 0.000116 ± 2.2e-05 s⁻¹. In addition, the “self-cleavage kobs at 2500 uM GlcN6P” value in the data set with glucosamine-6-phosphate [5] stood at 0.000167 ± 3.3e-05 s⁻¹. The “self-cleavage kobs at 10000 uM GlcN6P” value with glucosamine-6-phosphate [6] was determined as 0.000325 ± 5.8e-05 s⁻¹.
Turning to AUAAAAGCGCCUGAACUACAGAAAUGUAGUUUACGAGGAGGAGGUUUAUCGAAUUUUCGGCGGAUGCCUCCAAA, the kcat with glucosamine-6-phosphate [1] was found to be 0.000501 ± 4.8e-05 s⁻¹. Further, the KM in the data set with glucosamine-6-phosphate [2] stood at 4.27 ± 0.69 mM. In addition, the “self-cleavage kobs at 160 uM GlcN6P” value with glucosamine-6-phosphate [3] came to 2.63e-05 ± 1.2e-05 s⁻¹. Also, the “self-cleavage kobs at 640 uM GlcN6P” value with glucosamine-6-phosphate [4] was found to be 6.09e-05 ± 8.4e-06 s⁻¹. Moreover, the “self-cleavage kobs at 2500 uM GlcN6P” value with glucosamine-6-phosphate [5] came to 0.000196 ± 2.1e-05 s⁻¹. Also, the “self-cleavage kobs at 10000 uM GlcN6P” value with glucosamine-6-phosphate [6] stood at 0.000345 ± 3.4e-05 s⁻¹.
In the case of AUAAAAGCGCCAGAACUACAGAAAUGUAGCUGACGAGGAGGAGGUUUAUCGAAUUUUCGGCGGAUGGCUCCAAA, the kcat in the data set with glucosamine-6-phosphate [1] is 1.07e-05 ± 2.3e-06 s⁻¹. In the data set with glucosamine-6-phosphate [7], the “self-cleavage kobs at 40 uM GlcN6P” value was below 1e-05 s⁻¹.
Consider AUAAAAGCGCCAGAACUACAGAAAUGUAGUUGACGAGGAGGAGGUUUAUCGAAUUUUCUGCGGAUGCCGCCAAA, for which, in the data set with glucosamine-6-phosphate [1], the kcat was 2.94e-05 ± 8.4e-06 s⁻¹.
Consider AUAAAUGCGCCAGAACUACAGAAAUGUAGUUUACGAGGAGGAGGUUUAUGGAAUUUUCGGCGGAUGCCUCCAAA, for which the kcat in the data set with glucosamine-6-phosphate [1] was found to be 6.32e-05 ± 1.6e-05 s⁻¹. In addition, in the data set with glucosamine-6-phosphate [3], the “self-cleavage kobs at 160 uM GlcN6P” value turned out to be 7.94e-05 ± 1.8e-05 s⁻¹. In addition, in the data set with glucosamine-6-phosphate [5], the “self-cleavage kobs at 2500 uM GlcN6P” value worked out at 6.04e-05 ± 1.5e-05 s⁻¹.
